Assay results: patent publication US20250320288A1, “METHOD OF TREATING VITILIGO WITH INTERFERON-GAMMA ANTIBODY” (Elixiron Immunotherapeutics (Hong Kong), priority 2022, published 2025)

Key:
MITF = test: Melanin regulators in melanocytes (RNA sequencing, MITF immunoblot); assay type: cell-based, human; conditions: melanocytes
Text: Total RNA was extracted from melanocytes with an RNA purification kit (Zymo Research, r2050). After RNA samples were extracted from primary melanocytes and melanocytes cell line (Gibco), the samples were sent to Biotools Co., Ltd Taiwan for RNA sequence. The RNA quality was examined by Agilent Technologies 2100 Bio-analyzer with an RNA integrity value greater than 8. After rRNA depletion (Epicenter), RNA fragmentation, and library preparation (Illumina), the constructed libraries were then performed 150 bp paired-end sequencing by an Illumina NovaSeq6000 sequencer. The results from each sample were aligned to the GRCh38 genome by the HISAT2 software and analyzed by Biotools Co., Ltd Taiwan.
Cells were washed in PBS and lysed in RIPA lysis buffer with proteases inhibitor and Phenylmethanesulfonyl fluoride (PMSF; Sigma-Aldrich, P7626). The total cell lysates were sonicated and centrifuged at 4° C., 13000 rpm for 30 min. Protein concentration was quantified using the Bradford assay. The total cell lysates were separated by SDS-PAGE and transferred to a PVDF membrane. The membrane was blocked with 5% BSA or 5% milk in TBST for 1 hour at room temperature and incubated with primary antibodies overnight at 4° C. and HRP-conjugated secondary antibodies for hour at room temperature. The protein was visualized by Thermo ibright1500. Primary antibodies were follows: anti-human SLC7A11 (CST, 12691), anti-human SLC3A2 (CST, 13180), anti-IRF1 (CST, 8478), anti-MITF (CST, 12590), and anti-GAPDH (Abcam, ab8245).

[1] = 4-week repeated intravenous infusion GLP toxicology of EI-001; assay type: in vivo
Procedure: Materials and methods: A total of forty Cynomolgus monkeys (20 females and 20 males) were assigned into 4 groups with 5 animals/gender/group and given EI-001 (2A6Q) (10, 30 and 100 mg/kg) or vehicle (Formulation Buffer) in a volume of 10 mL/kg via 30-min intravenous infusion, once weekly for a total of 5 doses, followed by a 6-week recovery phase. All animals were scheduled to be necropsied at the end of main phase (on Day 30) and at the end of recovery phase (on Day 72). During the study, the following parameters were evaluated: clinical observations, ophthalmology, body weight, food consumption, body temperature (rectal temperature), clinical pathology (hematology, coagulation, plasma chemistry, lymphocyte immunophenotype and urinalysis), gross pathology, organ weight and histopathology. toxicokinetics, immunogenicity, local irritation assessment, cardiovascular (ECG, body surface temperature, blood pressure), respiratory and central nervous system safety pharmacology assessments were conducted concurrently. […] The immunogenicity samples were collected on pre-dose on Days 1, 15, 22, and Days 57, 71.

[2] = tested on: CXCR3 expression on CD8+ T cells; test: CXCR3 expression on CD8+ T cells of activated PBMCs (flow cytometry); assay type: cell-based, human; conditions: 3 individual donors
Procedure: (§1) Materials and methods: PBMCs from healthy adult donors were isolated from whole blood using Ficoll-Paque density gradient centrifugation. PBMCs were cultured in a humidified 37° C. incubator for 24 hours in RPMI-1640 culture medium supplemented with 5% human serum, and standard antibiotics, 2-ME and HEPES. PBMCs were then seeded at 1×10^6 cells/well with 1 mL fresh culture medium/well in a 24-well plate and stimulated by mixing cells with human T cell TransAct (1:200). Antibodies indicated in the Results were then added and mixed well. After 2 days of culture, PBMCs were collected, washed with PBS three times, re-suspended in culture medium and re-cultured with indicated antibodies for an additional 2 days.
(§2) PBMCs were treated as required (see above) and then harvested for flow cytometry antibody staining, using anti-human CD4, anti-human CD8, anti-human CD56 and anti-human CXCR3 antibodies for 30 minutes on ice in the dark. PBMCs were then washed twice with FACS buffer and the expression of CXCR3 determined by flow cytometry using an Attune NxT flow cytometry. Flow cytometry data analysis was performed using FlowJo software.

[3] = tested on: CXCR3 expression on CD4+ T cells; test: CXCR3 expression on CD4+ T cells of activated PBMCs (flow cytometry); assay type: cell-based, human; conditions: 3 individual donors
Procedure: as §1, §2

melanocytes = test: Intracellular ROS in melanocytes (CM-H2DCFDA); assay type: cell-based, human; conditions: melanocytes
Procedure: Materials and methods: For intracellular ROS measurement, melanocytes were washed with PBS and incubated with 20 μM CM-H2DCFDA (Invitrogen) for 30 min at 37° C. in the dark. The cells were resuspended with PBS and examined with flow cytometry at an excitation wavelength of 488 nm and an emission wavelength of 530 nm; the data were analyzed with FlowJo.

B1: EI-001: human monoclonal anti-IFN-γ neutralizing antibody; VH SEQ ID NO: 165, VL SEQ ID NO: 113; N76Q removes VH glycosylation site (antibody, listed as Homo sapiens, V domains shown)
VH: EVQLVESGGGLVKPGDSLTVSCVASGFTFSNYFIHWVRQAPGKGLEWVATISGRTKYMFYSDSLRGRFTVSRDNAQNSVYLHMSSLRGEDTALYYCVRGYDHSDSNSAADLLHWGRGTLVTVSS
VL: NFMLTQPLSVSGYPGKTIVISCVRSSGSVASHYVQWFQQRPGSAPAMVIYEDSHRPSGIPDRFSGSVDASSNSASLTISGLKTEDEADYFCQSYYGNNQVLFGGGTKLTVL
modifications: Recombinant variant antibody sequence
notes: human monoclonal anti-IFN-γ neutralizing antibody; N76Q removes VH glycosylation site
reversal of IFN-γ induced downregulation of MITF (MITF): reverses | survival of treated animals ([1]; 10, 30 and 100 mg/kg once weekly): survived to their scheduled necropsy | tolerability after repeated intravenous infusion for 4 weeks ([1]; 10, 30 and 100 mg/kg once weekly, 5 doses): well-tolerated | mortality rates or susceptibility to infections among the treated monkeys ([1]; compared to prior NI-0501 toxicology studies): did not increase | drug adverse events in in vivo toxicology ([1]; cynomolgus monkey, in vivo): does not cause any significant drug adverse events | observable symptoms of infection ([1]; cynomolgus monkey, in vivo): did not induce | only detected changes related to administration ([1]; cynomolgus monkey, in vivo): seen on a microscopic level | IC50 of EI-001 to inhibit CXCR3 expression on CD8+ T cells [2]: 1.029 to 6.941 µg/mL | IC50 of EI-001 to inhibit CXCR3 expression on CD4+ T cells [3]: 0.279 to 1.313 µg/mL | reversal of IFN-γ induced ROS / cellular oxidative stress (melanocytes): reverses the ROS
